The target in experiment [1] is CD3 on Jurkat cells (human (endogenous in Jurkat)) (UniProt P07766). The experiment in a line: FACS. As to conditions: bispecific antibody.
Experiment [2] concerns the target HER2 on SK-BR-3 cells (human (endogenous in SK-BR-3)) (UniProt P04626). Nature of the experiment: FACS. The note with it: bispecific antibody.
Experiment [3] shares this target. Nature of the experiment: flow cytometry on cells; SK-BR-3 or Jurkat cells with serially diluted antibody, 1 h at room temperature; PE-conjugated anti-human IgG Fc as secondary antibody.
The target of experiment [4] is recombinant CD3 antigen (ectodomain of hCD3) (human) (UniProt P07766). The experiment in a line: SPR; ProteOn XPR36; HER2 and CD3 antigens amine-coupled on a GLC chip at 1000 RU; M802 (0 to 50 nM) and other antibodies injected; 1:1 L interaction model for HER2, two state interaction model for CD3.
The target in experiment [5] is recombinant HER2 antigen (ectodomain of hHER2) (Homo sapiens) (UniProt P04626). The experiment is described as above.
Experiment [6] shares this target. The experiment in a line: SPR; ProteOn XPR36, GLC chip; HER2 antigen immobilised by amine coupling at 1000 RU; antibodies (M802 0 to 50 nM) injected; 1:1 L interaction model; KD = Kd/Ka.
Experiment [7] has as its target recombinant CD3 antigen (ectodomain of hCD3) (human) (UniProt P07766). The experiment in a line: SPR; ProteOn XPR36, GLC chip; CD3 antigen immobilised by amine coupling at 1000 RU; antibodies (M802 0 to 50 nM) injected; Two state interaction model; KD = Kd/Ka.

The record followed here is article PMC6694677.

Chain of recombinant CD3 antigen (ectodomain of hCD3) (human) (P07766 23-126): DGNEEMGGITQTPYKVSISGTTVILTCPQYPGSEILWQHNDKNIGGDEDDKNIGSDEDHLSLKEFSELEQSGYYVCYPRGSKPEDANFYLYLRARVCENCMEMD
Chain of CD3 on Jurkat cells (human (endogenous in Jurkat)) (P07766 23-207, chain 1 of 3): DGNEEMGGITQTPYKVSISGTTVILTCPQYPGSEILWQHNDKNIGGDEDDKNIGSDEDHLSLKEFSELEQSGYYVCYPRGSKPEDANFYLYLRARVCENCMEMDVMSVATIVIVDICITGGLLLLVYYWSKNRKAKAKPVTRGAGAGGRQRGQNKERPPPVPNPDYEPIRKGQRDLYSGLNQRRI
Chain of CD3 on Jurkat cells (human (endogenous in Jurkat)) (P04234 22-171, chain 2 of 3, further chain): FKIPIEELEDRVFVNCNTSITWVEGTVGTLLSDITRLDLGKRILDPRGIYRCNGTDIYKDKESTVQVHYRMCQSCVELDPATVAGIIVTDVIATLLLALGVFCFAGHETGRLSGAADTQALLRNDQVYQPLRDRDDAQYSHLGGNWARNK
Chain of CD3 on Jurkat cells (human (endogenous in Jurkat)) (P09693 23-182, chain 3 of 3, further chain): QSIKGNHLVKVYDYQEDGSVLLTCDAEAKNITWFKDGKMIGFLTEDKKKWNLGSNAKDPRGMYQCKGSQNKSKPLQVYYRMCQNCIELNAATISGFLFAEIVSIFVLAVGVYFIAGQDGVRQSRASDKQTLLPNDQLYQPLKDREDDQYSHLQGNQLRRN

On to “M802, anti-HER2/CD3 bispecific antibody (MSBODY format: monovalent unit against HER2 and single chain unit against CD3) (from UniProt P01857)”, for which the Kd in experiment [1] was found to be 187 nM; in experiment [2] it was 11.7 nM.
In experiment [3], “M802, anti-HER2/CD3 bispecific antibody (MSBODY format: monovalent unit against HER2 and single chain unit against CD3)” came in with a fold weaker affinity than Herceptin of 3 fold. In addition, the Kd in experiment [4] was found to be 71.2 nM; in experiment [5], 0.578 nM.
In the case of “M802, anti-HER2/CD3 bispecific antibody (monovalent unit against HER2 and single chain unit against CD3)”, in experiment [6], the koff amounted to 0.000248 s⁻¹ and the kon stood at 429000 M⁻¹ s⁻¹. Also, in experiment [7], the koff was 0.0245 s⁻¹ and the kon was 345000 M⁻¹ s⁻¹.
